Measurements taken from patent publication US7205275 (dated 2007).
Where two headings read alike, the source gives them in different places. Where no end group is shown, it is not given here. [ ]: non-standard residue; d: D form. Fc = immunoglobulin Fc domain fused to the peptide (peptibody)

T1: mouse Ang-2 (mouse, UniProt O35608)
T1 chain: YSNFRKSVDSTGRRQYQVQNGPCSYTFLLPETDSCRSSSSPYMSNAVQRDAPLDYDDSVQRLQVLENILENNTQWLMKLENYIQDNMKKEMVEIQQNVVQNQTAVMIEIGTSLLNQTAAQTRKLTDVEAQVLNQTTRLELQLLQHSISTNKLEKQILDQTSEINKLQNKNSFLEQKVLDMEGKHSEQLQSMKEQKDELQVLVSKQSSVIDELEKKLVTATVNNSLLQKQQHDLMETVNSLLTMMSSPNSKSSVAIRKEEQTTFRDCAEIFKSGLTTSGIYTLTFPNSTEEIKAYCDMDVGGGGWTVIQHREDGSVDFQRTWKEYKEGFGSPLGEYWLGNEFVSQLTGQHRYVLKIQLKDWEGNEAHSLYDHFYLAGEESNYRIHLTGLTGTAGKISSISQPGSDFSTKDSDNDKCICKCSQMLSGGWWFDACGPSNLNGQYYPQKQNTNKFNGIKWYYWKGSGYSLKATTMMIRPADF

B1: Con4 (N) (peptide)
chain: MGAQQEECEWDPWTCEHMLEGGGGG[Fc]
modifications: not fully specified (bridges); printed as MGAQQEECEWDPWTCEHMLEGGGGG-Fc; cysteine pairing not given here; also: Fc fusion domain at position 26
B2: human Ang-1 (protein)
chain: SNQRRSPENSGRRYNRIQHGQCAYTFILPEHDGNCRESTTDQYNTNALQRDAPHVEPDFSSQKLQHLEHVMENYTQWLQKLENYIVENMKSEMAQIQQNAVQNHTATMLEIGTSLLSQTAEQTRKLTDVETQVLNQTSRLEIQLLENSLSTYKLEKQLLQQTNEILKIHEKNSLLEHKILEMEGKHKEELDTLKEEKENLQGLVTRQTYIIQELEKQLNRATTNNSVLQKQQLELMDTVHNLVNLCTKEGVLLKGGKREEEKPFRDCADVYQAGFNKSGIYTIYINNMPEPKKVFCNMDVNGGGWTVIQHREDGSLDFQRGWKEYKMGFGNPSGEYWLGNEFIFAITSQRQYMLRIELMDWEGNRAYSQYDRFHIGNEKQNYRLYLKGHTGTAGKQSSLILHGADFSTKDADNDNCMCKCALMLTGGWWFDACGPSNLNGMFYTAGQNHGKLNGIKWHYFKGPSYSLRSTTMMIRPLDF
B3: human Ang-2 (protein)
chain: YNNFRKSMDSIGKKQYQVQHGSCSYTFLLPEMDNCRSSSSPYVSNAVQRDAPLEYDDSVQRLQVLENIMENNTQWLMKLENYIQDNMKKEMVEIQQNAVQNQTAVMIEIGTNLLNQTAEQTRKLTDVEAQVLNQTTRLELQLLEHSLSTNKLEKQILDQTSEINKLQDKNSFLEKKVLAMEDKHIIQLQSIKEEKDQLQVLVSKQNSIIEELEKKIVTATVNNSVLQKQQHDLMETVNNLLTMMSTSNSAKDPTVAKEEQISFRDCAEVFKSGHTTNGIYTLTFPNSTEEIKAYCDMEAGGGGWTIIQRREDGSVDFQRTWKEYKVGFGNPSGEYWLGNEFVSQLTNQQRYVLKIHLKDWEGNEAYSLYEHFYLSSEELNYRIHLKGLTGTAGKISSISQPGNDFSTKDGDNDKCICKCSQMLTGGWWFDACGPSNLNGMYYPQRQNTNKFNGIKWYYWKGSGYSLKATTMMIRPADF

Key:
mouse Ang-2 [1] = biological target: T1, mouse Ang-2; experiment: competition ELISA vs Tie-2
human Ang-2 [2] = biological target: B3; experiment: competition ELISA vs Tie-2
human Ang-2 [3] = biological target: B3; experiment: SPR
mouse Ang-2 [4] = biological target: T1, mouse Ang-2; experiment: SPR
human Ang-2 [5] = biological target: B3; experiment: ELISA
human Ang-1 [6] = biological target: B2; experiment: ELISA
human Ang-1 [7] = biological target: B2; experiment: competition ELISA vs Tie-2
mouse Ang-2 [8] = biological target: T1, mouse Ang-2; experiment: ELISA
[9] = biological target: Negative Control Peptibody 4883; experiment: ELISA
[10] = biological target: Negative Control Peptibody 4883; experiment: ELISA; remark: listed apart in the source

Binder: B1
IC50 (mouse Ang-2 [1]): 0.72 nM
IC50 (human Ang-2 [2]): 0.85 nM
Kd (human Ang-2 [3]): 0.67 nM
Kd (mouse Ang-2 [4]): 0.6 nM
EC50 (human Ang-2 [5]): 0.03 nM
binding result (human Ang-1 [6]): no binding
IC50 (human Ang-1 [7]): > 1000 nM
EC50 (mouse Ang-2 [8]): 0.07 nM

Binder: B2
binding result [9]: no binding

Binder: B3
binding result [10]: no binding
